Measurements taken from the supplement of paper PMC12042874.
± gives the uncertainty stated by the source.

Experiment: amyloid nucleation score (Sup35N fusion, yeast selection) (log enrichment); library NNK1; higher = more nucleation; inactive = no reads after selection
Procedure, shortened: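 The nucleation score is a DiMSum log enrichment of output over input reads, centred on the mode score of non-aggregating sequences. Sequences under 100 input reads were excluded, and reads came from Illumina sequencing of plasmid inserts. Psi-negative yeast expressing Sup35N fused to peptides of 20 random codons were induced with 100 μM copper sulfate for 24 hours and grown 7 days at 30°C on medium lacking adenine and uracil. Random libraries had three technical output replicates.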

| Substance | amyloid nucleation score |
| --- | --- |
| IKWLGLTSHRWIYTSGLRIL | inactive |
| IKWSGVVASGGDNPLTDHSR | -0.05 ± 0.71 |
| IKYFVLAWTSDPLTYVTVTS | 0.953 ± 0.46 |
| IKYINDITFLVLPYWFI | 3.6 ± 0.072 |
| ILADIVDATWNFKSSISFLG | 1.74 ± 0.16 |
| ILATMQFLCQMGSERNQARA | 0.454 ± 0.26 |
| ILAWAMGI | 0.777 ± 0.78 |
| ILCLKTDGLGDESRGVSEAG | 0.27 ± 0.75 |
| ILEFDDKKVLNLVEGKLLGA | -0.383 ± 1.7 |
| ILELYYYASRFLN | 0.45 ± 0.57 |
| ILFCYLYFMLNNFT | 1.07 ± 0.14 |
| ILIAKCSLPCYMKRGNAPCL | 1.37 ± 0.59 |
| ILLMFYRCSKDILLIRSTDF | 0.059 ± 0.27 |
| ILLYVICQVVTTV | 1.64 ± 0.34 |
| ILPLLLMWFTYCDDV | 2.23 ± 0.6 |
| ILRSGNVCYHNTVRWVLSYR | 0.225 ± 0.21 |
| ILSRVCVRGCIHLPSRMCRS | inactive |
| ILSYVTVDPAKVNYIFREWF | -1.03 ± 0.76 |
| ILVYERTYFRNLQWIIRWFS | -0.356 ± 0.22 |
| ILYNLGTWFRLC | -0.496 ± 0.61 |
| IMPDNDWKSCILIFSRSILF | 2.59 ± 0.15 |
| IMRRVLAFSCN | -0.538 ± 0.34 |
| IMYSQNEGDMYESSFV | -0.551 ± 0.35 |
| INDESFWDCIVPNRMKGFSG | 0.325 ± 0.42 |

| Substance | amyloid nucleation score |
| --- | --- |
| INELNTLLGI | 0.498 ± 0.97 |
| INFVLMIRMIVSFMNIGRIG | -0.527 ± 1.6 |
| INHLKGVSRYSVPVLLGFIA | 0.124 ± 0.45 |
| INLCAFGLPLVKVLHWLLYL | inactive |
| INLGLVGSRFGSNMERLYGG | 0.503 ± 1.1 |
| INNSDSCVMLMMNRVFCHGG | 6.085 ± 0.048 |
| INVPIWGNLQDWLVI | -0.924 ± 0.52 |
| INYNWCQTRG | -0.867 ± 0.39 |
| INYTTWHYASCFRFT | 2.82 ± 0.14 |
| IPNGNVSSSLSVGIMPVAFR | 4.36 ± 0.092 |
| IPPNSWMKSRNCTKLTARVY | -0.312 ± 1.4 |
| IPTLRSPVNRWPRITMKVWL | -0.161 ± 0.62 |
| IPVILSSSNYSDSKPGL | 0.964 ± 0.6 |
| IQALDLDTVFDCC | 6.45 ± 0.088 |
| IQQTLPQRYMYNEIRPCSSL | 0.502 ± 0.19 |
| IQYDSFNVRFDIATAIDYFA | -0.12 ± 0.67 |
| IRAQGHNYWALMRVAEWVVG | 1.75 ± 0.42 |
| IRCDKLISNSNMLGDKLTL | inactive |
| IRDMFVSGSQFFLKHMLSRG | 0.436 ± 0.78 |
| IRDNDDLLWMEGRSWKWSRR | 0.27 ± 0.29 |
| IRGNSKGMGQREFISPFPAR | -1 ± 0.35 |
| IRGVKSYLSLITLFSKTHLV | -0.833 ± 0.39 |
| IRGYGAWGQWGSYRFRESES | 1.6 ± 0.17 |
| IRKHLDPGPSYRSSYLRGW | inactive |

| Substance | amyloid nucleation score |
| --- | --- |
| IRLNSFTIESKRMYGRDSDV | 3.38 ± 0.12 |
| IRLRMWDHRWSTKGGSHTFL | -1.36 ± 0.95 |
| IRNSEKLNRGCGCGVMHVSV | 0.239 ± 0.49 |
| IRQTVVLGL | -0.732 ± 0.7 |
| IRVFLLSCQTEKLGSVGVRS | -0.007 ± 0.41 |
| IRVTAEICYLLKHTVMGRMR | 0.523 ± 0.34 |
| ISALRFSTLRSCGAGPGVAS | -0.859 ± 1.2 |
| ISCYVRISIILFLEKMVLRA | 0.033 ± 0.24 |
| ISDCRFILMYSYGHLCAGVR | 0.513 ± 0.45 |
| ISEMVEWSISPTLGETVTCM | 0.363 ± 0.49 |
| ISICDVYLWVHMRYSL | 0.584 ± 0.21 |
| ISLTDRVSGNRAVYHCSYAS | -1.01 ± 1.4 |
| ISNGFQSV | -0.027 ± 0.81 |
| ISRWMSVDLCLPKLATGTVS | -0.083 ± 0.4 |
| ISSTGKIFGFFPLCSYMN | 0.041 ± 0.47 |
| ISWFRCLEVWPSYGIPDWKN | -0.467 ± 0.28 |
| ISWMLLVLSFSMTVLNIRWN | -0.199 ± 0.33 |
| ISYESWVLRGIARGFQGLVG | -1.09 ± 0.7 |
| ISYSYVTIIA | -0.181 ± 0.27 |
| ITAFKRAKRSAGCW | -0.034 ± 0.25 |
| ITFKLNMCPILWIPCVACSN | 6.57 ± 0.047 |
| ITGGVVWEHS | 0.358 ± 1 |
| ITKGAPSLYYMCRRGEDACS | 0.523 ± 0.44 |
| ITMFNLYQCSL | 5.78 ± 0.065 |

| Substance | amyloid nucleation score |
| --- | --- |
| ITMGTGCSAGEWFMVYMMC | 2.15 ± 0.2 |
| ITVDAMIKSVYFITDSYRHF | 0.911 ± 0.26 |
| ITVRATR | -0.97 ± 1.7 |
| ITYSTYLMSCGRSMYQGWKV | 0.372 ± 0.23 |
| IVDYVGCLRHYECYGWQPWG | 0.225 ± 0.51 |
| IVETLCRYCVPRVMVTFVGQ | inactive |
| IVLRFIRILISINLSQEH | -1.14 ± 0.76 |
| IVLTHYGSVLFHSYKGYFMW | -0.197 ± 0.29 |
| IVTALEGYRDYFSEPCIFFM | -0.176 ± 0.32 |
| IVVGCGCPPRINCFV | -0.444 ± 0.7 |
| IVWSYSRTIYLNFI | 0.873 ± 0.68 |
| IVYIWFLSLNFSMMVSFRFP | 0.805 ± 0.29 |
| IWDHCFGPVKCCNIWGKEVG | 5.1 ± 0.079 |
| IWIDKRWLMMPKLVRKVPNV | inactive |
| IWLCVYNGM | 4.98 ± 0.12 |
| IWLSQYDHGNCVTYSQANYM | 0.412 ± 0.85 |
| IWMFISAVASFNITRSWCYL | 2.02 ± 0.13 |
| IWMGCYVNVARSK | 1.03 ± 0.22 |
| IWNIVWNNLVYVNFSNLGGV | 3.73 ± 0.08 |
| IWWVDGVKTGSF | 1.21 ± 0.76 |
| IWYSVWNSNGFSHSRHGQQR | inactive |
| IYDTGVAFDCSLM | inactive |
| IYEKRGD | 1.15 ± 0.98 |
| IYFTSTMKLRQDILADNEHC | 1.08 ± 0.54 |

| Substance | amyloid nucleation score |
| --- | --- |
| IYKVLYYEVNKFWTTIVSSR | -0.651 ± 0.29 |
| IYLSNAYSTTYSLKFSFM | 6.14 ± 0.071 |
| IYNQESVEYQGTMYLHFRYW | inactive |
| IYPKLDCYVAVVLLDLSGVT | inactive |
| IYQLDVLGFDFN | inactive |
| IYSNKRTNMLMCMYNSVRGH | 0.243 ± 0.35 |
| IYSRVGWETSWDWSVSVWGF | 0.031 ± 0.37 |
| KACWTFNFCKSMVVKEHDPI | 2.56 ± 0.19 |
| KAGVSVLYLHMFLF | -0.303 ± 0.79 |
| KAPAMHWLDRFVGYVPRV | -0.011 ± 0.27 |
| KAQGPSFYEYRWITLNYLGY | 1.07 ± 0.15 |
| KASGIMLSSGVLEILVWVQW | 0.01 ± 0.84 |
| KASMMPSDSSCLI | 0.911 ± 0.34 |
| KAVFDNLLTCPILVIGSTPA | -0.956 ± 0.93 |
| KCGGKRCWLSFCLDAD | 1.48 ± 0.33 |
| KCHRPWYSCLIC | 1.98 ± 0.61 |
| KCIDMVFKY | 0.143 ± 0.39 |
| KCLTMDFLR | -1.12 ± 1.1 |
| KCREIALHYPAYIPFVLIAY | -0.031 ± 0.82 |
| KCSFNLTLIVF | 1.77 ± 0.15 |
| KCTELTTCRSPVMKGEAVWL | -0.052 ± 0.77 |
| KCYLLRKVGCWHQHLDGHFG | -0.429 ± 0.66 |
| KDICSYGLNYSLDNVVYNLV | 0.809 ± 0.39 |
| KDISITCLLYPKNHSGYSGT | 0.058 ± 0.25 |

| Substance | amyloid nucleation score |
| --- | --- |
| KDLLYKSIRW | 1.03 ± 0.27 |
| KDNLYWKDLSVCLRRFVGLH | inactive |
| KDVMYTYFIAISDLGIRNPL | 1.3 ± 0.56 |
| KEIIEMWSTFTYNQIWCDWI | -0.322 ± 0.42 |
| KELIKCYLNM | 0.463 ± 0.5 |
| KFCLDLSYLFSSRTVMYEIV | -0.24 ± 0.26 |
| KFKKFGSSDGLDCDRYILVG | -0.799 ± 1.2 |
| KFNIVILLINCAPAFSEMYL | 5.475 ± 0.05 |
| KFTFDS | 1.52 ± 0.35 |
| KFVHNYSLKYIKGVVSCQFL | 0.727 ± 0.37 |
| KFVYEGSGHQVILYVTLMGY | -1.59 ± 0.84 |
| KGCAIGRRAINSCYQSGWIW | 1.6 ± 0.57 |
| KGCCLCLISMSVTNRLVEPR | 6.294 ± 0.059 |
| KGNYFRVTVYSAGFIQLLMS | 6.393 ± 0.049 |
| KGTAPGNSGGERVVMNSHDL | 2.61 ± 0.22 |
| KHDRHAKTTSLYRKPGKLRR | 0.4 ± 1.1 |
| KHRFCSIEWVK | 1.31 ± 0.71 |
| KHWSCRYWEEFGGMDHNLDW | 1.1 ± 0.38 |
| KIEFIGDVRFA | 0.92 ± 0.67 |
| KIICFRLKSPLVWKMYDKTG | -0.699 ± 0.32 |
| KIRVYSRCCFLSG | 5.63 ± 0.071 |
| KKAIPACHVVSFTMRLSFLD | 0.225 ± 0.63 |
| KKSGRYESVSQGWYDRLLQF | -0.667 ± 0.31 |
| KKWHNVIGARDLSRIYSIA | inactive |

| Substance | amyloid nucleation score |
| --- | --- |
| KLCCSLVNSIMNLFAMSAAV | inactive |
| KLESCN | 0.39 ± 1.2 |
| KLILK | -0.378 ± 0.51 |
| KLIVVSLIRDMQSNV | -0.059 ± 0.27 |
| KLMVHRNDRNPMY | -0.318 ± 0.63 |
| KLSNFKVHYCYLTSHLMLET | 0.053 ± 0.43 |
| KLSYFSQEKRDNWPISRLPS | 0.072 ± 0.3 |
| KLYWTYLTPGTNSGLQSPDS | -0.288 ± 0.62 |
| KMIDICPFIHWSQSSTPSRA | 0.018 ± 0.67 |
| KMLSSQLITRPFGGPKRHKP | 0.753 ± 0.65 |
| KMRVHGLAVHRATQ | -0.737 ± 0.71 |
| KMSVRNVTDFGVRLVRYFNG | 1.42 ± 0.22 |
| KNAPLPRIVTIGKVLRYNRG | 0.422 ± 0.79 |
| KNRQLTRLFYTWELRTGTVG | -0.227 ± 0.61 |
| KNVYDYFWLDNCYAIDIASM | 0.427 ± 0.41 |
| KPLILVQNTKLPSRFCYPLT | -0.488 ± 0.74 |
| KPRVRAAGLCSLQFWALIAV | -0.275 ± 0.72 |
| KQRSN | 0.746 ± 0.7 |
| KRALQDRMLLEP | -0.286 ± 1 |
| KRARGDFYILEWQSDLDNLG | -0.755 ± 0.67 |
| KRDFVSRLDESPN | -0.873 ± 1.1 |
| KRLLFKYRSVNRHTYLFIPV | -0.616 ± 0.28 |
| KRRWPSSNGDFFAECYQLGT | 0.461 ± 0.25 |
| KRRYYCFGAMVY | 0.203 ± 0.38 |
